Consider one molecule from paper PMC9299759, “FBXW24 controls female meiotic prophase progression by regulating SYCP3 ubiquitination” (Clinical and Translational Medicine, 2022).

This assay deals with T1, FBXW24‐EGFP‐Strep II protein, purified from Sf9 (mouse, UniProt E9PXM9 1-466).
T1 construct: FBXW24 (F-box and WD-40 domain protein 24), mouse, gene ID 382106; also called FBXW24‐StrepII; in vitro purified FBXW24; source: Sf9 (Bac-to-bac baculovirus), purified (Ni-NTA); not shown: EGFP, C-terminal, kept; Strep II, C-terminal, kept
T1 sequence (looked up): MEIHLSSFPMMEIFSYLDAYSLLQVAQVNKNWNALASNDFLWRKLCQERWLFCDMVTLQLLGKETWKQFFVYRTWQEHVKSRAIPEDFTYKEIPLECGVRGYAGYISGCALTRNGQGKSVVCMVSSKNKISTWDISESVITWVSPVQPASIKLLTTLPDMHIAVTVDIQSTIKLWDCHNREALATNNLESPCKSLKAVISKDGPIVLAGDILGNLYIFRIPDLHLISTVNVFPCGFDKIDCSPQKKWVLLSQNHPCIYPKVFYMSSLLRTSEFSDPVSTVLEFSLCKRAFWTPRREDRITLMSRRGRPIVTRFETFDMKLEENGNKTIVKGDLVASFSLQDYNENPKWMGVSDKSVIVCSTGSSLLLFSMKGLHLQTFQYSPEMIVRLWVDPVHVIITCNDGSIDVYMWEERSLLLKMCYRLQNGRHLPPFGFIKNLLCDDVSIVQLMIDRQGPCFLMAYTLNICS
The assay is described as follows: co-IP; co-IP between in vitro purified proteins; 1 μg SYCP3‐Flag protein and/or FBXW24‐StrepII protein in each reaction. Particulars: both partners purified.

B1: SYCP3‐TagRFP‐Flag protein, purified from Sf9 (natural protein, mouse, UniProt P70281 1-254, looked up)
chain: MLRGCGDSDSSPEPLSKHLKMVPGGRKHSGKSGKPPLVDQPKKAFDFEKDDKDLSGSEEDVADEKAPVIDKHGKKRSAGIIEDVGGEVQNMLEKFGADINKALLAKRKRIEMYTKASFKASNQKIEQIWKTQQEEIQKLNNEYSQQFMNVLQQWELDIQKFEEQGEKLSNLFRQQQKIFQQSRIVQSQRMFAMKQIHEQFIKSLEDVEKNNDNLFTGTQSELKKEMAMLQKKVMMETQQQEMANVRKSLQSMLF
notes: SYCP3, synaptonemal complex lateral element protein; The purified protein ran as several bands, and the upper bands carried ubiquitin; also called SYCP3‐Flag; in vitro purified SYCP3; source: Sf9 (Bac-to-bac baculovirus), purified (Ni-NTA); not shown: TagRFP, C-terminal, kept; Flag, C-terminal, kept
In the case of B1, the binding result is listed as “binds”.
